Reference: US7026443
Like-named read-outs stand apart in the source and are kept apart here.

Assays:
[1] = biological target: HLA-A*1101 (human); test: competition with 125I-labelled standard peptide for purified HLA, gel filtration
[2] = biological target: HLA-A*0301 (human); test: as above
[3] = biological target: HLA-A*1101 (human); test: competition with 125I-labelled standard peptide for purified HLA-A*1101, gel filtration
[4] = biological target: HLA-A*0301 (human); test: competition with 125I-labelled standard peptide for purified HLA-A*0301, gel filtration
[5] = biological target: HLA-A*0301 (human)
[6] = remark: other sources report otherwise

Binder LVRNFKSDK (modifications not checked) [HPV45 E1 215 …] has a relative binding ratio (IC50 of standard peptide / IC50 of test peptide) (ratio to standard peptide) [1] of 0.0002 and a relative binding ratio (IC50 of standard peptide / IC50 of test peptide) (ratio to standard peptide) [2] of 0.0005.

EGTGCNGWFY (modifications not checked) [HPV16 E1 11 …] was tested, and the relative binding ratio (IC50 of standard peptide / IC50 of test peptide) [3] was 0.0002.

WLQPLADAK (modifications not checked) [… (HPV31 E1, position 489, 9 amino acids)] was tested, and the binding affinity ratio (IC50 of standard peptide / IC50 of test peptide) (ratio relative to standard peptide) [1] was 0.0002 and the binding affinity ratio (IC50 of standard peptide / IC50 of test peptide) (ratio relative to standard peptide) [2] was 0.0005.

CCKCDSTLR (modifications not checked) [… (HPV16 E7, position 58, 9 amino acids)] was tested, and the relative binding ratio (IC50 of standard peptide / IC50 of test peptide) [3] was 0.0001.

Binder PLNPAEKLR (modifications not checked) [HPV18 E6 peptide … (position 111, 9 amino acids)] has a relative binding ratio (IC50 of standard peptide / IC50 of test peptide) [1] of 0.0005, a relative binding ratio (IC50 of standard peptide / IC50 of test peptide) [2] of 0.0002 and a relative binding ratio (IC50 of standard peptide / IC50 of test peptide) [4] of 0.0002.

TGRCMSCCR (modifications not checked) [… (HPV16 E6, position 140, 9 amino acids)] gave a relative binding ratio (IC50 of standard peptide / IC50 of test peptide) [3] of 0.0001.

WTGRCMSCCR (modifications not checked) [… (HPV16 E6, position 139, 10 amino acids)] was tested, and the relative binding ratio (IC50 of standard peptide / IC50 of test peptide) [3] was 0.0008.

NAKAAMLAK (modifications not checked) [HPV16 E1 202 …] gave a binding affinity ratio (IC50 of standard peptide / IC50 of test peptide) (ratio to standard peptide) [3] of 0.0031.

Work on LIRCLRCQK (modifications not checked) [HPV18 E6 peptide … (position 102, 9 amino acids)] yielded a relative binding ratio (IC50 of standard peptide / IC50 of test peptide) [5] of 0.019, a relative binding ratio (IC50 of standard peptide / IC50 of test peptide) [1] of 0.0012 and a relative binding ratio (IC50 of standard peptide / IC50 of test peptide) [2] of 0.019.

With IVCPICSQK (modifications not checked) [… (HPV16 E7, position 89, 9 amino acids)] the relative binding ratio (IC50 of standard peptide / IC50 of test peptide) [3, 6] was 0.0065.

DLQPETTDLY (modifications not checked) [… (HPV16 E7, position 14, 10 amino acids)] showed a relative binding ratio (IC50 of standard peptide / IC50 of test peptide) [3, 6] of 0.0002.

KLRHLNEKR (modifications not checked) [HPV18 E6 peptide … (position 117, 9 amino acids)] showed a relative binding ratio (IC50 of standard peptide / IC50 of test peptide) [1] of 0.0005, a relative binding ratio (IC50 of standard peptide / IC50 of test peptide) [2] of 0.025 and a relative binding ratio (IC50 of standard peptide / IC50 of test peptide) (ratio to standard peptide) [4] of 0.025.

Binder CMCCKCEARIK (modifications not checked) [HPV18 E7 peptide … (position 63, 11 amino acids)] has a relative binding ratio (IC50 of standard peptide / IC50 of test peptide) [1] of 0.0002 and a relative binding ratio (IC50 of standard peptide / IC50 of test peptide) [2] of 0.0014.

Work on MLIQPPKLR (modifications not checked) [… (HPV31 E1, position 285, 9 amino acids)] yielded a binding affinity ratio (IC50 of standard peptide / IC50 of test peptide) (ratio relative to standard peptide) [1] of 0.0014 and a binding affinity ratio (IC50 of standard peptide / IC50 of test peptide) (ratio relative to standard peptide) [2] of 0.0005.

In the case of NINAGTDSR (modifications not checked) [HPV16 E1 567 …], the binding affinity ratio (IC50 of standard peptide / IC50 of test peptide) (ratio to standard peptide) [3] is reported as 0.0002.

LTEVFEFAFK (modifications not checked) [HPV18 E6 peptide … (position 41, 10 amino acids)] gave a relative binding ratio (IC50 of standard peptide / IC50 of test peptide) [5] of 0.0001, a relative binding ratio (IC50 of standard peptide / IC50 of test peptide) [1] of 0.036 and a relative binding ratio (IC50 of standard peptide / IC50 of test peptide) [2] of 0.0001.

NSNAAAFLK (modifications not checked) [HPV45 E1 379 …] gave a relative binding ratio (IC50 of standard peptide / IC50 of test peptide) (ratio to standard peptide) [1] of 0.37 and a relative binding ratio (IC50 of standard peptide / IC50 of test peptide) (ratio to standard peptide) [2] of 0.0057.

Work on YCKQQLLRR (modifications not checked) [… (HPV16 E6, position 39, 9 amino acids)] yielded a relative binding ratio (IC50 of standard peptide / IC50 of test peptide) [3] of 0.0001.

DSIPHAACH (modifications not checked) [HPV18 E6 58 …] gave a binding affinity ratio (IC50 of standard peptide / IC50 of test peptide) [3] of 0.0002.

GVLILALLR (modifications not checked) [HPV45 E1 265 …] gave a relative binding ratio (IC50 of standard peptide / IC50 of test peptide) (ratio to standard peptide) [1] of 0.14 and a relative binding ratio (IC50 of standard peptide / IC50 of test peptide) (ratio to standard peptide) [2] of 0.0058.

With TAQEAKQHR (modifications not checked) [… (HPV16 E1, position 72, 9 amino acids)] the binding affinity ratio (IC50 of the standard peptide / IC50 of the test peptide) [3] was 0.0025.

For DIEITCVYCK (modifications not checked) [HPV18 E6 peptide … (position 27, 10 amino acids)], the relative binding ratio (IC50 of standard peptide / IC50 of test peptide) (ratio to standard peptide) [5] was 0.0089, the relative binding ratio (IC50 of standard peptide / IC50 of test peptide) [1] was 0.0021 and the relative binding ratio (IC50 of standard peptide / IC50 of test peptide) [2] was 0.0089.

In the case of ELRHYSDSVY (modifications not checked) [HPV18 E6 77 …], the binding affinity ratio (IC50 of standard peptide / IC50 of test peptide) [3] is reported as 0.0002.

Binder AICIEKQSR (modifications not checked) [HPV16 E1 112 …] has a relative binding ratio (IC50 of standard peptide / IC50 of test peptide) [3] of 0.0057.
